The values that follow come from US20140186357A1.

This test addresses SUMO1 (construct transfected into HSW cells in Example 8) (human) (UniProt P63165). The experiment in a line: cell-based or functional assay.
UniProt P63165, sequence (P63165 2-97 limits assumed): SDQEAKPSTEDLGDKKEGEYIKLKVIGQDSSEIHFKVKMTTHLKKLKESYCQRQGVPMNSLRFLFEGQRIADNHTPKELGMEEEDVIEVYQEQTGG

“N-terminal deleted BACE1-CTF (BACE1 C-terminal fragment, residues 456-501) (peptide)” displayed an Aβ production (secreted Aβ levels by ELISA, HSW cells) of 25 % reduction.
